In patent US7109317 one finds suppression of PMA/ionomycin-induced activation of an NFAT-SEAP reporter, C40-phenyl-FK506 against FK506 data, which are given here for one substance.

The target in this test is endogenous calcineurin (human) (UniProt P63098). Description: cell-based or functional assay.
Sequence of endogenous calcineurin (human) (P63098 2-170): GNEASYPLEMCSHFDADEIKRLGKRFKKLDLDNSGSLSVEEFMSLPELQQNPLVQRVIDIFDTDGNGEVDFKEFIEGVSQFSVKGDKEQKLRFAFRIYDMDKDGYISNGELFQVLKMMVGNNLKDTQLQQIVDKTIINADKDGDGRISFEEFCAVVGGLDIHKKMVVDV

Sequence of FKBP12 (P62942 2-108 limits assumed): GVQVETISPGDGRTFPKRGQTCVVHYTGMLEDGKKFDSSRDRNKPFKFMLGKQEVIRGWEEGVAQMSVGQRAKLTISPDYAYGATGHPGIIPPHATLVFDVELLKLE

For FKBP12 (from UniProt P62942 2-108), the suppression of PMA/ionomycin-induced activation of an NFAT-SEAP reporter, C40-phenyl-FK506 against FK506 worked out at 30 fold.
